The series deals with the molecule itself. The series is described as follows: SAXS.

B1: Human PKG Iβ LZ:CNB-A/B (residues 1-369) (domain or fragment, UniProt Q13976-2 1-369, looked up)
chain: MGTLRDLQYALQEKIEELRQRDALIDELELELDQKDELIQKLQNELDKYRSVIRPATQQAQKQSASTLQGEPRTKRQAISAEPTAFDIQDLSHVTLPFYPKSPQSKDLIKEAILDNDFMKNLELSQIQEIVDCMYPVEYGKDSCIIKEGDVGSLVYVMEDGKVEVTKEGVKLCTMGPGKVFGELAILYNCTRTATVKTLVNVKLWAIDRQCFQTIMMRTGLIKHTEYMEFLKSVPTFQSLPEEILSKLADVLEETHYENGEYIIRQGARGDTFFIISKGTVNVTREDSPSEDPVFLRTLGKGDWFGEKALQGEDVRTANVIAAEAVTCLVIDRDSFKHLIGGLDDVSNKAYEDAEAKAKYEAEAAFFAN
Consider B1, for which the binding result is recorded as “binds”.

Values taken from paper PMC4856591 (Structure (London, England : 1993), 2016).
